These are literature values, as cited in US20240209043A1, “NON-ANTIBODY BINDING PEPTIDES AND THEIR ANALOGS DUAL-TARGETING TO PD-1 AND PD-L1, AND USES THEREOF” (ORAL SUBSIDIARY SUN YAT-SEN UNIVERSITY HOSPITAL, priority 2021, published 2024).

This data set has as its target PD-1 (Homo sapiens, UniProt Q15116). To be noted: background section; read-out: Kd-value of antibody drug targeting PD-1.

PD-1, sequence (Q15116 25-288): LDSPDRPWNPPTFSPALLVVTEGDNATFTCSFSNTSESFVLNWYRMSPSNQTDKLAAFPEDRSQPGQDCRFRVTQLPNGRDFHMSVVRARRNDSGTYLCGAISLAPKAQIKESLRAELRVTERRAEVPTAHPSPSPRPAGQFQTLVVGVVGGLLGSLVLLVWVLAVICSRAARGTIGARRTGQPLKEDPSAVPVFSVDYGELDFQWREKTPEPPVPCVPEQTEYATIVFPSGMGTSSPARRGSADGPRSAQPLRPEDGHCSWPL

B1: Camrelizumab (antibody, chains of the INN, looked up, V domains shown)
VH: EVQLVESGGGLVQPGGSLRLSCAASGFTFSSYMMSWVRQAPGKGLEWVATISGGGANTYYPDSVKGRFTISRDNAKNSLYLQMNSLRAEDTAVYYCARQLYYFDYWGQGTTVTVSS
VL: DIQMTQSPSSLSASVGDRVTITCLASQTIGTWLTWYQQKPGKAPKLLIYTATSLADGVPSRFSGSGSGTDFTLTISSLQPEDFATYYCQQVYSIPWTFGGGTKVEIK
notes: marketed IgG4 antibody drug targeting PD-1
As to B1, the Kd is 3.31 nM.
